{"source": "patent US10766960", "about": "(dated 2020)", "test_in_all_cases": "SPR", "key": {"FcgRIIb [1]": {"target": "T1, FcgRIIb (human, UniProt P31994)", "T1 chain": "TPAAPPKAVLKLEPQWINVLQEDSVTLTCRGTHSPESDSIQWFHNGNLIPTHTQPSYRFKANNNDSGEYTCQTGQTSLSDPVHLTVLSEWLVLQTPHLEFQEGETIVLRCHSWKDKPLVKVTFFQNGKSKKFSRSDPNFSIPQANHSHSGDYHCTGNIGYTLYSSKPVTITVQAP"}, "FcgRIIb [2]": {"target": "T1, FcgRIIb"}, "FcgRIIa R [3]": {"target": "T2, FcgRIIa R (human, UniProt P12318)", "T2 chain": "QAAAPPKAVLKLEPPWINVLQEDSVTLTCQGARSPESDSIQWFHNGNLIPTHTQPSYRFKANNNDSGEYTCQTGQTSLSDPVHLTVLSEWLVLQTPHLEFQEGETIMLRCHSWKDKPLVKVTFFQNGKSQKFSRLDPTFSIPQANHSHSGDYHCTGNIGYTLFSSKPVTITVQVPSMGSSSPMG"}, "FcgRIIa H [4]": {"target": "T3, FcgRIIa H (human, UniProt P12318)", "T3 chain": "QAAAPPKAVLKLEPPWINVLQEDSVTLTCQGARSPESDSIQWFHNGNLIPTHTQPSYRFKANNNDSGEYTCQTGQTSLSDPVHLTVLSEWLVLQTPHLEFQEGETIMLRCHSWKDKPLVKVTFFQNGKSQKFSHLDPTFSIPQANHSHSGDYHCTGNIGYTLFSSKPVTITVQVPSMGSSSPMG"}, "FcgRIIb [5]": {"target": "T1, FcgRIIb"}, "FcgRIIa R [6]": {"target": "T2, FcgRIIa R"}, "FcgRIIIa F [7]": {"target": "T4, FcgRIIIa F (human, UniProt P08637)", "T4 sequence (P08637 17-208)": "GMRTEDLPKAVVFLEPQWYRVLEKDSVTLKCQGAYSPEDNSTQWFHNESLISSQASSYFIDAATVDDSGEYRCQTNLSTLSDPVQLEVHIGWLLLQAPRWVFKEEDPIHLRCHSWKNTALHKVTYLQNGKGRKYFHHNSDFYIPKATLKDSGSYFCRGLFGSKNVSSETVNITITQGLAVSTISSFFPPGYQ"}, "FcgRIIa R [8]": {"target": "T2, FcgRIIa R"}, "FcgRIa [9]": {"target": "T5, FcgRIa (human, UniProt P12314)", "T5 chain": "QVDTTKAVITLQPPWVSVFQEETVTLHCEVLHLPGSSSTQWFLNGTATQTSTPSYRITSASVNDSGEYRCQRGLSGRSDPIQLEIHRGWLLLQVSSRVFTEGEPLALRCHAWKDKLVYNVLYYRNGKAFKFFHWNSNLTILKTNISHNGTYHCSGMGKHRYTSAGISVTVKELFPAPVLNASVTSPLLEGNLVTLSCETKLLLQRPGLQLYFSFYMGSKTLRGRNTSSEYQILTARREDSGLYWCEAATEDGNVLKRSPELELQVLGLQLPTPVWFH"}, "FcgRIIIa F [10]": {"target": "T4, FcgRIIIa F", "remark": "listed apart in the source"}, "FcgRIIIa V [11]": {"target": "T6, FcgRIIIa V (human, UniProt P08637)", "T6 sequence (P08637 17-208 F176V)": "as the sequence (P08637 17-208) above, with F160V counted along it"}, "FcgRIIIa V [12]": {"target": "T6, FcgRIIIa V", "remark": "listed apart in the source"}, "FcgRIIa H [13]": {"target": "T3, FcgRIIa H"}, "FcgRIa [14]": {"target": "T5, FcgRIa"}, "FcgRIa [15]": {"target": "T5, FcgRIa"}, "FcgRIIa H [16]": {"target": "T3, FcgRIIa H"}, "FcgRIIIa V [17]": {"target": "T6, FcgRIIIa V", "remark": "listed apart in the source"}, "FcgRIIIa F [18]": {"target": "T4, FcgRIIIa F", "remark": "listed apart in the source"}, "FcgRIIb [19]": {"target": "T1, FcgRIIb"}, "FcgRIIIa V [20]": {"target": "T6, FcgRIIIa V", "remark": "listed apart in the source"}, "FcgRIIIa F [21]": {"target": "T4, FcgRIIIa F", "remark": "listed apart in the source"}, "FcgRIa [22]": {"target": "T5, FcgRIa"}, "FcgRIIa H [23]": {"target": "T3, FcgRIIa H"}, "FcgRIIa R [24]": {"target": "T2, FcgRIIa R"}}, "note": "Read-outs that look alike come from different tables or passages of the source."}
{"binder": "H240-Kn120/H240-Hl068/L73-k0 (antibody) chain 1: QDQLVQSGAEVKKPGASVKVSCKASGFNIKDTYIQWVRQAPGQGLEWMGRIDPLRKQTKYREKFEGRVTITADTSTNTAYMELSSLRSEDTAVYYCVRSGREFDYWGQGTLVTVSSASTKGPSVFPLAPSSKSTSGGTAALGCLVKDYFPEPVTVSWNSGALTSGVHTFPAVLQSSGLYSLSSVVTVPSSSLGTQTYICNVNHKPSNTKVDKKVEPKSCDKTHTCPPCPAPEYYWGPMVFLFPPKPKDTLMISRTPEVTCVVVDVSDEDPEVKFNWYVDGVEVHNAKTKPREEQYNATYRVVSVLTVLHQDWLNGKEYKCKVSNKDLPAPIEKTISKAKGQPREPQVCTLPPSRDELTKNQVSLWCLVKGFYPSDIAVEWESNGQPENNYKTTPPVLDSDGSFFLYSKLTVDKSRWQQGNVFSCSVMHEALHNHYTQKSLSLSP chain 2: QDQLVQSGAEVKKPGASVKVSCKASGFNIKDTYIQWVRQAPGQGLEWMGRIDPLRKQTKYREKFEGRVTITADTSTNTAYMELSSLRSEDTAVYYCVRSGREFDYWGQGTLVTVSSASTKGPSVFPLAPSSKSTSGGTAALGCLVKDYFPEPVTVSWNSGALTSGVHTFPAVLQSSGLYSLSSVVTVPSSSLGTQTYICNVNHKPSNTKVDKKVEPKSCDKTHTCPPCPAPELLGGPSVFLFPPKPKDTLMISRTPEVTCVVVDVSHEEPEVKFNWYVDGVEVHNAKTKPREEQYNSTYRVVSVLTVLHQDWLNGKEYKCKVSNDALPKPIEETISKAKGQPREPQVYTLPPSRCELTKNQVSLSCAVKGFYPSDIAVEWESNGQPENNYKTTPPVLDSDGSFFLVSKLTVDKSRWQQGNVFSCSVMHEALHNHYTQKSLSLSP chain 3: DIQMTQSPSSLSASVGDRVTITCRASQDIHKYIAWYQQKPGQAPRLLIQYTSTLQPGVPSRFSGSGSGTDYTFTISSLQPEDIATYYCLQYEQLRTFGGGTKVEIKRTVAAPSVFIFPPSDEQLKSGTASVVCLLNNFYPREAKVQWKVDNALQSGNSQESVTEQDSKDSTYSLSSTLTLSKADYEKHKVYACEVTHQGLSSPVTKSFNRGEC", "values": [{"measurement": "Kd", "setting": "FcgRIIb [1]", "value": 150, "unit": "nM"}, {"measurement": "Kd", "setting": "FcgRIIb [2]", "value": 150, "unit": "nM"}, {"measurement": "Kd", "setting": "FcgRIIa R [3]", "value": 23, "unit": "nM"}, {"measurement": "Kd", "setting": "FcgRIIa H [4]", "value": 44, "unit": "nM"}, {"measurement": "Kd", "setting": "FcgRIIb [5]", "value": 150, "unit": "nM"}, {"measurement": "Kd", "setting": "FcgRIIa R [6]", "value": 17, "unit": "nM"}, {"measurement": "Kd", "setting": "FcgRIIIa F [7]", "value": 2.4, "unit": "nM"}, {"measurement": "Kd", "setting": "FcgRIIa R [8]", "value": 20, "unit": "nM"}, {"measurement": "Kd", "setting": "FcgRIa [9]", "value": 0.37, "unit": "nM"}, {"measurement": "Kd", "setting": "FcgRIIIa F [10]", "value": 2.4, "unit": "nM"}, {"measurement": "Kd", "setting": "FcgRIIIa V [11]", "value": 0.66, "unit": "nM"}, {"measurement": "Kd", "setting": "FcgRIIIa V [12]", "value": 0.36, "unit": "nM"}, {"measurement": "Kd", "setting": "FcgRIIa H [13]", "value": 59, "unit": "nM"}, {"measurement": "Kd", "setting": "FcgRIa [14]", "value": 0.16, "unit": "nM"}, {"measurement": "Kd", "setting": "FcgRIa [15]", "value": 0.11, "unit": "nM"}, {"measurement": "Kd", "setting": "FcgRIIa H [16]", "value": 41, "unit": "nM"}, {"measurement": "Kd", "setting": "FcgRIIIa V [17]", "value": 0.33, "unit": "nM"}, {"measurement": "Kd", "setting": "FcgRIIIa F [18]", "value": 2.2, "unit": "nM"}]}
{"binder": "H240-Kn225/H240-Hl076/L73-k0 (antibody) chain 1: QDQLVQSGAEVKKPGASVKVSCKASGFNIKDTYIQWVRQAPGQGLEWMGRIDPLRKQTKYREKFEGRVTITADTSTNTAYMELSSLRSEDTAVYYCVRSGREFDYWGQGTLVTVSSASTKGPSVFPLAPSSKSTSGGTAALGCLVKDYFPEPVTVSWNSGALTSGVHTFPAVLQSSGLYSLSSVVTVPSSSLGTQTYICNVNHKPSNTKVDKKVEPKSCDKTHTCPPCPAPEYQWGPIVFLFPPKPKDTLMISRTPEVTCVVVDVSDEEPEVKFNWYVDGVEVHNAKTKPREEQYNATYRVVSVLTVLHQDWLNGKEYKCKVSNKALPAPIEKTISKAKGQPREPQVCTLPPSRDELTKNQVSLWCLVKGFYPSDIAVEWESNGQPENNYKTTPPVLDSDGSFFLYSKLTVDKSRWQQGNVFSCSVMHEALHNHYTQKSLSLSP chain 2: QDQLVQSGAEVKKPGASVKVSCKASGFNIKDTYIQWVRQAPGQGLEWMGRIDPLRKQTKYREKFEGRVTITADTSTNTAYMELSSLRSEDTAVYYCVRSGREFDYWGQGTLVTVSSASTKGPSVFPLAPSSKSTSGGTAALGCLVKDYFPEPVTVSWNSGALTSGVHTFPAVLQSSGLYSLSSVVTVPSSSLGTQTYICNVNHKPSNTKVDKKVEPKSCDKTHTCPPCPAPELLGGPSVFLFPPKPKDTLMISRTPEVTCVVVDVSHEEPEVKFNWYVDGVEVHNAKTKPREEQYNSTYRVVSVLTVLHQDWLNGKEYKCKVSNDALPMPIEETISKAKGQPREPQVYTLPPSRCELTKNQVSLSCAVKGFYPSDIAVEWESNGQPENNYKTTPPVLDSDGSFFLVSKLTVDKSRWQQGNVFSCSVMHEALHNHYTQKSLSLSP chain 3: DIQMTQSPSSLSASVGDRVTITCRASQDIHKYIAWYQQKPGQAPRLLIQYTSTLQPGVPSRFSGSGSGTDYTFTISSLQPEDIATYYCLQYEQLRTFGGGTKVEIKRTVAAPSVFIFPPSDEQLKSGTASVVCLLNNFYPREAKVQWKVDNALQSGNSQESVTEQDSKDSTYSLSSTLTLSKADYEKHKVYACEVTHQGLSSPVTKSFNRGEC", "values": [{"measurement": "Kd", "setting": "FcgRIIb [19]", "value": 5200, "unit": "nM"}, {"measurement": "Kd", "setting": "FcgRIIIa V [20]", "value": 0.19, "unit": "nM"}, {"measurement": "Kd", "setting": "FcgRIIIa F [21]", "value": 1.1, "unit": "nM"}, {"measurement": "Kd", "setting": "FcgRIa [22]", "value": 0.036, "unit": "nM"}, {"measurement": "Kd", "setting": "FcgRIIa H [23]", "value": 170, "unit": "nM"}, {"measurement": "Kd", "setting": "FcgRIIa R [24]", "value": 490, "unit": "nM"}]}
{"binder": "H240-Kn229/H240-Hl068/L73-k0 (antibody) chain 1: QDQLVQSGAEVKKPGASVKVSCKASGFNIKDTYIQWVRQAPGQGLEWMGRIDPLRKQTKYREKFEGRVTITADTSTNTAYMELSSLRSEDTAVYYCVRSGREFDYWGQGTLVTVSSASTKGPSVFPLAPSSKSTSGGTAALGCLVKDYFPEPVTVSWNSGALTSGVHTFPAVLQSSGLYSLSSVVTVPSSSLGTQTYICNVNHKPSNTKVDKKVEPKSCDKTHTCPPCPAPEYYWGPIVFLFPPKPKDTLMISRTPEVTCVVVDVSDEDPEVKFNWYVDGVEVHNAKTKPREEQYNATYRVVSVLTVLHQDWLNGKEYKCKVSNKDLPAPIEKTISKAKGQPREPQVCTLPPSRDELTKNQVSLWCLVKGFYPSDIAVEWESNGQPENNYKTTPPVLDSDGSFFLYSKLTVDKSRWQQGNVFSCSVMHEALHNHYTQKSLSLSP chain 2: QDQLVQSGAEVKKPGASVKVSCKASGFNIKDTYIQWVRQAPGQGLEWMGRIDPLRKQTKYREKFEGRVTITADTSTNTAYMELSSLRSEDTAVYYCVRSGREFDYWGQGTLVTVSSASTKGPSVFPLAPSSKSTSGGTAALGCLVKDYFPEPVTVSWNSGALTSGVHTFPAVLQSSGLYSLSSVVTVPSSSLGTQTYICNVNHKPSNTKVDKKVEPKSCDKTHTCPPCPAPELLGGPSVFLFPPKPKDTLMISRTPEVTCVVVDVSHEEPEVKFNWYVDGVEVHNAKTKPREEQYNSTYRVVSVLTVLHQDWLNGKEYKCKVSNDALPKPIEETISKAKGQPREPQVYTLPPSRCELTKNQVSLSCAVKGFYPSDIAVEWESNGQPENNYKTTPPVLDSDGSFFLVSKLTVDKSRWQQGNVFSCSVMHEALHNHYTQKSLSLSP chain 3: DIQMTQSPSSLSASVGDRVTITCRASQDIHKYIAWYQQKPGQAPRLLIQYTSTLQPGVPSRFSGSGSGTDYTFTISSLQPEDIATYYCLQYEQLRTFGGGTKVEIKRTVAAPSVFIFPPSDEQLKSGTASVVCLLNNFYPREAKVQWKVDNALQSGNSQESVTEQDSKDSTYSLSSTLTLSKADYEKHKVYACEVTHQGLSSPVTKSFNRGEC", "values": [{"measurement": "Kd", "setting": "FcgRIIb [19]", "value": 200, "unit": "nM"}, {"measurement": "Kd", "setting": "FcgRIIIa V [20]", "value": 0.77, "unit": "nM"}, {"measurement": "Kd", "setting": "FcgRIIIa F [21]", "value": 2.1, "unit": "nM"}, {"measurement": "Kd", "setting": "FcgRIa [22]", "value": 0.13, "unit": "nM"}, {"measurement": "Kd", "setting": "FcgRIIa H [23]", "value": 39, "unit": "nM"}, {"measurement": "Kd", "setting": "FcgRIIa R [24]", "value": 16, "unit": "nM"}]}
